Consider 53 variants from PMC7679444.

The labels stand for the following.
B1: TMEM59 peptide (residues 268–280), wild type [modified: long spacer (Tds) at the N-terminal end, used for immobilisation; long spacer (Tds) at the N-terminal end, used for immobilisation] [not stated] / GST-HA-ATG16L1(231–607) … (parent)
chain 1: PLPVEQDDDIEVIVDETSDHTEETSPVRAISRAATKRLSQPAGGLLDSITNIFGRRSVSSFPVPQDNVDTHPGSGKEVRVPATALCVFDAHDGEVNAVQFSPGSRLLATGGMDRRVKLWEVFGEKCEFKGSLSGSNAGITSIEFDSAGSYLLAASNDFASRIWTVDDYRLRHTLTGHSGKVLSAKFLLDNARIVSGSHDRTLKLWDLRSKVCIKTVFAGSSCNDIVCTEQCVMSGHFDKKIRFWDIRSESIVREMELLGKITALDLNPERTELLSCSRDDLLKVIDLRTNAIKQTFSAPGFKCGSDWTRVVFSPDGSYVAAGSAEGSLYIWSVLTGKVEKVLSKQHSSSINAVAWSPSGSHVVSVDKGCKAVLWAQY
chain 2: YVPSEKLSIYGDL

In this experiment the parent is B1. Put plainly: peptide microarray. The note with it: with GST-HA-ATG16L1(231–607) [human], parent: 100.

Regarding chain 2 G11R, the percent of parent (ligand 800, 600, 400 nM) turned out to be 62 % WT.

For the variant chain 2 G11I, the percent of parent (ligand 800, 600, 400 nM) came to 1 % WT.

Turning to chain 2 G11E, the percent of parent (ligand 800, 600, 400 nM) was 129 % WT.

With chain 2 G11W, where the note is “ligand 800, 600, 400 nM”, the percent of parent was 165 % WT.

For chain 2 G11Q, where the note is “ligand 800, 600, 400 nM”, the percent of parent came to 31 % WT.

As for chain 2 G11M, the percent of parent (ligand 800, 600, 400 nM) worked out at 40 % WT.

Consider chain 2 G11P, for which the percent of parent (ligand 800, 600, 400 nM) came to 155 % WT.

In the case of chain 2 G11N, the percent of parent (ligand 800, 600, 400 nM) stood at 140 % WT.

In the case of chain 2 G11V, for the setting “ligand 800, 600, 400 nM”, the percent of parent was 13 % WT.

Regarding chain 2 G11D, the percent of parent (ligand 800, 600, 400 nM) is 146 % WT.

In the case of chain 2 G11T, where the note is “ligand 800, 600, 400 nM”, the percent of parent worked out at 117 % WT.

Regarding chain 2 G11H, the percent of parent (ligand 800, 600, 400 nM) was determined as 156 % WT.

chain 2 V2I: the percent of parent was 96 % WT (ligand 200, 50, 20 nM) and 99 % WT (ligand 800, 600, 400 nM).

As to chain 2 V2M, the percent of parent runs as follows: (ligand 200, 50, 20 nM) 31 % WT; (ligand 800, 600, 400 nM) 28 % WT.

With chain 2 V2R, the percent of parent reads like this: (ligand 200, 50, 20 nM) 41 % WT; (ligand 800, 600, 400 nM) 47 % WT.

chain 2 V2A: the percent of parent (ligand 200, 50, 20 nM) worked out at 47 % WT and the percent of parent (ligand 800, 600, 400 nM) was found to be 50 % WT.

chain 2 V2L: the percent of parent runs as follows: (ligand 200, 50, 20 nM) 145 % WT; (ligand 800, 600, 400 nM) 134 % WT.

Regarding chain 2 V2D, the percent of parent (ligand 200, 50, 20 nM) came to 13 % WT and the percent of parent (ligand 800, 600, 400 nM) stood at 18 % WT.

As to chain 2 V2H, the percent of parent (ligand 200, 50, 20 nM) was 55 % WT and the percent of parent (ligand 800, 600, 400 nM) was 67 % WT.

With chain 2 V2Q, the percent of parent (ligand 200, 50, 20 nM) came to 12 % WT and the percent of parent (ligand 800, 600, 400 nM) amounted to 15 % WT.

Take chain 2 V2N: the percent of parent was 19 % WT (ligand 200, 50, 20 nM) and 25 % WT (ligand 800, 600, 400 nM).

As for chain 2 V2S, the percent of parent (ligand 200, 50, 20 nM) worked out at 50 % WT and the percent of parent (ligand 800, 600, 400 nM) was found to be 56 % WT.

In the case of chain 2 V2W, the percent of parent by setting is: (ligand 200, 50, 20 nM) 118 % WT; (ligand 800, 600, 400 nM) 119 % WT.

With chain 2 V2P, the percent of parent reads like this: (ligand 200, 50, 20 nM) 35 % WT; (ligand 800, 600, 400 nM) 41 % WT.

Regarding chain 2 V2E, the percent of parent reads like this: (ligand 200, 50, 20 nM) 9 % WT; (ligand 800, 600, 400 nM) 11 % WT.

Consider chain 2 V2F, for which the percent of parent by setting is: (ligand 200, 50, 20 nM) 250 % WT; (ligand 800, 600, 400 nM) 177 % WT.

For the variant chain 2 V2T, the percent of parent reads like this: (ligand 200, 50, 20 nM) 33 % WT; (ligand 800, 600, 400 nM) 31 % WT.

Consider chain 2 V2K, for which the percent of parent was 101 % WT (ligand 200, 50, 20 nM) and 96 % WT (ligand 800, 600, 400 nM).

chain 2 V2G: the percent of parent (ligand 200, 50, 20 nM) worked out at 73 % WT and the percent of parent (ligand 800, 600, 400 nM) came to 58 % WT.

For chain 2 V2Y, the percent of parent stood at 80 % WT (ligand 200, 50, 20 nM) and 90 % WT (ligand 800, 600, 400 nM).

In the case of chain 2 P3G, the percent of parent (ligand 200, 50, 20 nM) came to 143 % WT and the percent of parent (ligand 800, 600, 400 nM) is 131 % WT.

In the case of chain 2 P3V, the percent of parent is 334 % WT (ligand 200, 50, 20 nM) and 176 % WT (ligand 800, 600, 400 nM).

As for chain 2 P3M, the percent of parent is 435 % WT (ligand 200, 50, 20 nM) and 184 % WT (ligand 800, 600, 400 nM).

As for chain 2 P3S, the percent of parent (ligand 200, 50, 20 nM) was 184 % WT and the percent of parent (ligand 800, 600, 400 nM) turned out to be 138 % WT.

With chain 2 P3Y, the percent of parent reads like this: (ligand 200, 50, 20 nM) 134 % WT; (ligand 800, 600, 400 nM) 104 % WT.

As to chain 2 P3F, the percent of parent reads like this: (ligand 200, 50, 20 nM) 472 % WT; (ligand 800, 600, 400 nM) 168 % WT.

For chain 2 P3L, the percent of parent was determined as 493 % WT (ligand 200, 50, 20 nM) and 189 % WT (ligand 800, 600, 400 nM).

As for chain 2 P3R, the percent of parent amounted to 216 % WT (ligand 200, 50, 20 nM) and 131 % WT (ligand 800, 600, 400 nM).

Take chain 2 P3I: the percent of parent is, setting by setting: (ligand 200, 50, 20 nM) 343 % WT; (ligand 800, 600, 400 nM) 172 % WT.

For the variant chain 2 P3K, the percent of parent reads like this: (ligand 200, 50, 20 nM) 499 % WT; (ligand 800, 600, 400 nM) 181 % WT.

Regarding chain 2 P3E, the percent of parent runs as follows: (ligand 200, 50, 20 nM) 89 % WT; (ligand 800, 600, 400 nM) 86 % WT.

chain 2 P3D: the percent of parent runs as follows: (ligand 200, 50, 20 nM) 104 % WT; (ligand 800, 600, 400 nM) 107 % WT.

Consider chain 2 P3T, for which the percent of parent by setting is: (ligand 200, 50, 20 nM) 518 % WT; (ligand 800, 600, 400 nM) 191 % WT.

For chain 2 P3Q, the percent of parent was determined as 254 % WT (ligand 200, 50, 20 nM) and 152 % WT (ligand 800, 600, 400 nM).

As for chain 2 P3W, the percent of parent (ligand 200, 50, 20 nM) worked out at 483 % WT and the percent of parent (ligand 800, 600, 400 nM) was found to be 188 % WT.

On to chain 2 P3N, for which the percent of parent amounted to 109 % WT (ligand 200, 50, 20 nM) and 110 % WT (ligand 800, 600, 400 nM).

With chain 2 P3A, the percent of parent stood at 328 % WT (ligand 200, 50, 20 nM) and 168 % WT (ligand 800, 600, 400 nM).

Consider chain 2 P3H, for which the percent of parent came out at 225 % WT (ligand 200, 50, 20 nM) and 145 % WT (ligand 800, 600, 400 nM).

Regarding chain 2 E5R, the percent of parent (ligand 200, 50, 20 nM) turned out to be 224 % WT and the percent of parent (ligand 800, 600, 400 nM) stood at 165 % WT.

For the variant chain 2 E5T, the percent of parent reads like this: (ligand 200, 50, 20 nM) 261 % WT; (ligand 800, 600, 400 nM) 179 % WT.

In the case of chain 2 E5A, the percent of parent reads like this: (ligand 200, 50, 20 nM) 86 % WT; (ligand 800, 600, 400 nM) 95 % WT.

Consider chain 2 E5Y, for which the percent of parent turned out to be 158 % WT (ligand 200, 50, 20 nM) and 148 % WT (ligand 800, 600, 400 nM).

Take chain 2 E5G: the percent of parent is 158 % WT (ligand 200, 50, 20 nM) and 142 % WT (ligand 800, 600, 400 nM).
